From article doi:10.1101/2021.03.09.434688
Several values for one entry are separate records, joined by “and”; a condition that tells them apart may be missing. Equal values may be shown once.

Legend:
[1] = target: MP variants with one or two Glu-to-Ala mutations; experiment: fluorescence polarisation
[2] = target: fluorophore-labeled core peptide Fl_PsnA2(28-38); experiment: fluorescence polarisation
[3] = target: fluorophore-labeled minimal precursor peptide Fl_PsnA2(14-38); experiment: fluorescence polarisation
PsnB = experiment: crystal structure

Substance | fold reduction of the affinity against MP [1] | Kd [2] [µM] | fold enhancement of the interaction with ADP (1 mM) against no nucleotide [3] [fold] | fold enhancement of the interaction with AMPPNP (1 mM) against no nucleotide [3] [fold] | fold tighter binding than the LP (Fl LP) [3] [fold] | stoichiometry N (PsnB)
PsnB (enzyme) | 10 fold and 4 fold | > 100 | 9 | 2 | 6 | 2
leader-fused PsnB (enzyme) | – | 11 | – | – | – | –
